Binding data for 2 sequences are collected here from publication PMC10120478.

Series [1] concerns the target T1, MgrA (Staphylococcus aureus XN108) (UniProt P0C1S0).
T1 sequence: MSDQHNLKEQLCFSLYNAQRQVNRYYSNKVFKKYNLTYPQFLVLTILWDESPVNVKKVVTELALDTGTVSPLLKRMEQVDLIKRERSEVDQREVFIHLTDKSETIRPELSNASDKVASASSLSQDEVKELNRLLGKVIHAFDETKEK
Briefly: EMSA. As to conditions: EMSA: 20 mM Hepes pH 7.6, 1 mM EDTA, 10 mM (NH4)2SO4, 30 mM KCl, 1 mM DTT, 0.2% (w/v) Tween-20, 10 uL, room temperature 1 min; 4% native PAGE.

Series [2] addresses T2, MgrA C12S C12S (Staphylococcus aureus XN108 mgrAC12S mutant) (UniProt P0C1S0).
T2 sequence: T1 sequence with C12S
In words: EMSA. As to conditions: EMSA: 20 mM Hepes pH 7.6, 1 mM EDTA, 10 mM (NH4)2SO4, 30 mM KCl, 1 mM DTT, 0.2% (w/v) Tween-20, 10 uL, room temperature 1 min; 4% native PAGE.

Where a chain is given by its changes, count along the chain named.

On to “GTCACACTCCATGCCATTGAGTTGTAATATATCTTTTTTAGGTATAAATGTTGTCGAATAAACAACAAGTTGTCCAAAAGATATAAATCTAAACAAGATATAGCCAGCAATTTAATATTTGTAATAGATAAAATGCTAAGTTTGATATATAATAAATTTAAGTAATTGTATAATAATATGAATTACAAACATCTAAGAAGAAACATAGGAGGCATCA (double strand) [psarV (sarV promoter probe)]”, for which the binding result was “binds” in series [1] and “binds more weakly” in series [2].

Take “GTTCGACATACCCAATGCCAAAAACATACCTATTGAAATTGACAAAATTCCAATACTAACTTTTCTAATTGAATAGCGTACTTTACTTTGTTGTTTATTCATGATGAAACACTCCTTACAATAATATACAAACATTATAACATAGTGCGCTATATATTTTAATTAAAATTTTCTTTGTTTTATAAAGCTATTGTAGGAGGTAAAATAATTAACTTGTCTTTCCAAAATATGAAAAGTGTACTAAAATTCATCGCACGACAAATAGCCCATTTCCGATACTT (double strand) [plytN (lytN promoter probe)]”: the binding entry in series [1] is listed as “binds”; in series [2] it was “binds more weakly”.
